# Assay results as given in patent US20180339041A1 (Kyowa Kirin, published 2018).
# T1: human protein S (derived from human serum; Enzyme Research Laboratories) (human, UniProt P07225 42-676)
# T1 construct: Homologue of Gas6 used as specificity control
# T1 sequence (looked up): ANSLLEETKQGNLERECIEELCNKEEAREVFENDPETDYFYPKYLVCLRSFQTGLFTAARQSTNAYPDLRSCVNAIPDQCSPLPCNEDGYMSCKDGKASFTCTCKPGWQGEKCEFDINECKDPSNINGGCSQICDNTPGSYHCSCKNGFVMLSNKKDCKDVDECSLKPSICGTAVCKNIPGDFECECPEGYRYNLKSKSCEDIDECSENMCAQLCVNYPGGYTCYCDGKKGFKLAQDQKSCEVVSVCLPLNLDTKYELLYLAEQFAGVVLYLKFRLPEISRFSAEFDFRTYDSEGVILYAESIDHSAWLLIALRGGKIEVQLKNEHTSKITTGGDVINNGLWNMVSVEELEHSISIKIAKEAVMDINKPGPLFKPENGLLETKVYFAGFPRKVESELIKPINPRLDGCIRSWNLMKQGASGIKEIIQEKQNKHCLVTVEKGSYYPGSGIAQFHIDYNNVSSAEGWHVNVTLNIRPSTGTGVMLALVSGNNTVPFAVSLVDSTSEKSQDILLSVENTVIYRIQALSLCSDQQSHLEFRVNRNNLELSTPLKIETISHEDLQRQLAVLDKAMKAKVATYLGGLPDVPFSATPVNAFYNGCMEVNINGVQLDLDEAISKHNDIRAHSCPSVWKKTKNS
# T2: C-terminally FLAG-tagged human Gas6 recombinant protein (hGas6-F) (human, UniProt Q14393 31-678, gamma-carboxylated glutamic acid residues in the Gla domain (producer cells co-express rat VKOR and human GGCX); positions not given)
# T2 construct: also called human Gas6-F; human Gas6 protein
# T2 sequence: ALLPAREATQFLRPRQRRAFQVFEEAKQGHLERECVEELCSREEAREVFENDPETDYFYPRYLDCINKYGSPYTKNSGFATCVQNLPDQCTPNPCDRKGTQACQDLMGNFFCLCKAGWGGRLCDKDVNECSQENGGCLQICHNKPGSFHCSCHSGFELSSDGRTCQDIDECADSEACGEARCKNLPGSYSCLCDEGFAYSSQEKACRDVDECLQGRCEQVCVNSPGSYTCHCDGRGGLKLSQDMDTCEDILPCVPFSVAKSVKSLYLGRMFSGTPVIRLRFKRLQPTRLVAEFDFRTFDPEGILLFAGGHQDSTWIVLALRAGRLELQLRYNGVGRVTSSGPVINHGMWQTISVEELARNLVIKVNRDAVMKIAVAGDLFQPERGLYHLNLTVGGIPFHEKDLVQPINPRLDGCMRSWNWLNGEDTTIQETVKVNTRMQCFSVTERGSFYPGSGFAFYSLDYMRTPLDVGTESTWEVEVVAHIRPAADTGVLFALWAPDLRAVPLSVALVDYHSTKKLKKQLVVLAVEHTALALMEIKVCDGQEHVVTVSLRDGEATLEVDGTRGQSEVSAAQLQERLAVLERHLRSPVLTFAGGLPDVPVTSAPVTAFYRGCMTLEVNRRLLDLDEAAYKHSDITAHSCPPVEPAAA
# Key:
# [1] = target: T1, human protein S (derived from human …); experiment: ELISA: human protein S coated directly on the plate (2 µg/mL); biotinylated test antibody; streptavidin-HRP/TMB (Example 6, method of Example 5(5)) [F]
# Protocol: First, a 2 μg/mL solution of the antigen (prepared from each antigen with PBS (manufactured by Nacalai Tesque, Inc.)) was dispensed at 50 μL/well to a 96-well plate for ELISA (manufactured by Nalge Nunc International), and the plate was left standing overnight at 4° C. for adsorption. The plate was washed five times with Tween 20-PBS. Then, 1% BSA-PBS (manufactured by Nacalai Tesque, Inc.) was added thereto at 300 μL/well, and the plate was left standing at room temperature for 1 hour for blocking and washed five times with Tween 20-PBS (manufactured by Wako Pure Chemical Industries Ltd.). Next, the hybridoma culture supernatant was dispensed thereto as a test substance at 50 μL/well, and the plate was left standing at room temperature for 1 hour and then washed five times with Tween 20-PBS. Next, polyclonal goat anti-mouse immunoglobulins/HRP (Dako Denmark A/S, P0447) diluted 2000-fold with 1% BSA-PBS was dispensed thereto at 50 μL/well, and the plate was left standing at room temperature for 1 hour. The plate was washed five times with Tween 20-PBS, and TMB (manufactured by Sigma-Aldrich Co. LLC) was added thereto at 50 μL/well and reacted. At an appropriate point in time, the reaction was terminated by the addition of 1 N hydrochloric acid (manufactured by Wako Pure Chemical Industries Ltd.) at 50 μL/well. The absorbance at a sample wavelength of 450 nm and a reference wavelength of 570 nm (450 nm-570 nm) was measured using a plate reader (Spectra Max, manufactured by Molecular Devices, LLC).
# The binding activity of the obtained antibodies against human protein S was measured in the same way as in Example 5(5). […] The secondary detection reagent used was Streptavidin HRP Conjugate (manufactured by R&D Systems, Inc.) diluted 200-fold with 1% BSA-PBS.
# [2] = target: T2, C-terminally FLAG-tagged human Gas6 …; experiment: ELISA: hGas6-F (1 µg/mL) captured on coated anti-FLAG M2 antibody; biotinylated test antibody; streptavidin-HRP/TMB; absorbance 450-570 nm, N=2 (Example 6) [A]
# Protocol: First, 2 μg/mL anti-FLAG antibody [Monoclonal ANTI-FLAG M2 antibody produced in mouse (manufactured by Sigma-Aldrich Co. LLC) diluted with PBS (manufactured by Nacalai Tesque, Inc.)] was dispensed at 50 μL/well to a 96-well plate for ELISA (manufactured by Nalge Nunc International), and the plate was left standing overnight at 4° C. for adsorption. After removal of the immobilization solution, 1% BSA-PBS (manufactured by Nacalai Tesque, Inc.) was added thereto at 300 μL/well, and the plate was left standing at room temperature for 1 hour for blocking and washed five times with Tween 20-PBS (manufactured by Wako Pure Chemical Industries Ltd.).
# Each antibody solution was dispensed thereto at 50 μL/well, and the plate was left standing at room temperature for 1 hour. This plate was washed five times with Tween 20-PBS. Then, Streptavidin HRP Conjugate (manufactured by R&D Systems, Inc.) diluted 200-fold with 1% BSA-PBS was dispensed thereto at 50 μL/well, and the plate was left standing at room temperature for 1 hour. This plate was washed five times with Tween 20-PBS, and TMB (manufactured by Sigma-Aldrich Co. LLC) was added thereto at 50 μL/well and reacted. […] The absorbance at a sample wavelength of 450 nm and a reference wavelength of 570 nm (450 nm-570 nm) was measured using a plate reader.
binding result [1],EC50 (read off the curve) [2] [ng/mL],Binder
no binding (tested: 5 µg/mL),~3,"anti-human Gas6 mouse monoclonal antibody KM5320 (KM5320-mKG1 antibody) (antibody, V domains shown, Hybridoma-derived mouse IgG1, kappa; also called KM5320 antibody) VH: QIQLVQSGPELKKPGETVKISCKASGYTFTNYGMNWVKQAPGKGLKWMGWINTETGEPTYSDDFKGRFAFSLETSATTAYLQINNLRNEDMATYFCAREDGYYGTLDYWGQGTSVTVSS VL: SIVMTQTPKFLLVSAGDRVTITCKASQSVSNDVAWYQQKPGQSPKVLIYYASNRYTGVPDRFTGSGYGTDFTFTISTVQAEDLAVYFCQQDYSSPWTFGGGTKLEIK"
no binding (tested: 5 µg/mL),~4,"anti-human Gas6 mouse monoclonal antibody KM5321 (KM5321-mKG1 antibody) (antibody, V domains shown, Hybridoma-derived mouse IgG1, kappa; also called KM5321 antibody) VH: QIQLVQSGPELKKPGETVKISCRASGYTFTNYGMNWVKQAPGKGLKWMGWINTNTGEPTYTEEFKGRFAFSLETSATTAYLQINDLKNEDTATYFCARDEGWFVYWGQGTLITVSA VL: ETTVTQSPASLSVATGEKVTIRCITSTDIDDDMNWYQQKPGEPPKLLISEGNTLRPGVPSRFSSSGYGTDFVFTIENTLSEDVADYYCLQTDSVPLTFGAGTKLELK"
